The text below walks through data of patent US20230417748A1.

“And” between values parts separate entries of the source, which are not always exact repeats. Equal values may be shown once.

This experiment has as its target recombinant SARS (1-1190) (Beta Lifescience, BLIT-0210) (SARS-CoV), P59594. The note with it: remark: other sources report otherwise.

B1: clone 5E9 (antibody, V domains shown)
VH: EVQLVESGGGLVQPGGSLRLSCAASGFTFTTYDMGWVRQAPGKGPEWVSLISSGGSNTWYDDSVKGRFTISRDNSKNTLYLQMNSLRAEDTAVYYCAKEKYPYSDCDYWGQGTLVTVSS
On to B1, for which the O.D. is 0.294 O.D. and 0.278 O.D.

B2: clone 6D9 (antibody, V domains shown)
VH: EVQLVESGGGLVQPGGSLRLSCAASGFTFTDYDMGWVRQAPGKGPEWVSLISGDSGNTWYDDSVKGRFTISRDNSKNTLYLQMNSLRAEDTAVYYCAKYRGTTKDYWGQGTLVTVSS
On to B2, for which the O.D. is 0.389 O.D. and 0.386 O.D.
